Here are results for two substances from article PMC6201953.

In test [1] the target is HIV-1 HXB2 envelope glycoprotein (Env) (HIV-1 (isolate HXB2)) (UniProt P04578).
The target in test [2] is HIV-1 YU2 envelope glycoprotein (Env) (HIV-1 (isolate YU2)) (UniProt P35961).
The target of test [3] is HIV-1 HXB2 envelope glycoprotein (Env) (HIV-1 (isolate HXB2)) (UniProt P04578). This is another data set of the same source.
In test [4] the target is HIV-1 BG505 envelope glycoprotein (Env) (HIV-1 (isolate BG505)) (UniProt Q2N0S6).
The target of test [5] is HIV-1 ZM651 envelope glycoprotein (Env) (HIV-1 (isolate ZM651)).
In test [6] the target is HIV-1 YU2 envelope glycoprotein (Env) (HIV-1 (isolate YU2)) (UniProt P35961). This is another data set of the same source.
Test [7] addresses HIV-1 HXB2 envelope glycoprotein (Env) (HIV-1 (isolate HXB2)) (UniProt P04578). The source holds these as a separate data set.

UniProt P35961, sequence (P35961 32-843): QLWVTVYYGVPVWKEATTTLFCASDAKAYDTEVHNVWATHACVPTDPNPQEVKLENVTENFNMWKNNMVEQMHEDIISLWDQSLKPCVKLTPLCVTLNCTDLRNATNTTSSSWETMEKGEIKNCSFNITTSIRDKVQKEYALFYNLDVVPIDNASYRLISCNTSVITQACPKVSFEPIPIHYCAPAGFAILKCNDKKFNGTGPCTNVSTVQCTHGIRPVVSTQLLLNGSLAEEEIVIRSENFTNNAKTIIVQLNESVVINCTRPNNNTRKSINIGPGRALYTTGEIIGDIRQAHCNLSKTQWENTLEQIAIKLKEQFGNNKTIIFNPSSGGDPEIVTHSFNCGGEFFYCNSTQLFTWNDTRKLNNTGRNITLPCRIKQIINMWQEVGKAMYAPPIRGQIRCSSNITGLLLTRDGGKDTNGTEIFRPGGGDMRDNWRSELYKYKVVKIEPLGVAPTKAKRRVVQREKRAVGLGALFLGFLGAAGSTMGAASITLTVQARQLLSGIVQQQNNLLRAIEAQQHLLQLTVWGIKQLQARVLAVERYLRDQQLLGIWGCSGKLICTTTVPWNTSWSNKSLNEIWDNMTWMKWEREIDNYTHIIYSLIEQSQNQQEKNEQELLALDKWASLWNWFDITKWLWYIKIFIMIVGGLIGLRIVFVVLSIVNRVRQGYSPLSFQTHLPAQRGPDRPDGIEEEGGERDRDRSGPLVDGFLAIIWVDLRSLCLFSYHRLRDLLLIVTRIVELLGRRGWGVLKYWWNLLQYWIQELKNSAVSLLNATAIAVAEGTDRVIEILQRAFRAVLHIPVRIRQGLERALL

As for eCD4-Ig^mim2 (Fc fusion), in test [1], the Env-mediated cell-cell fusion (SRFA), CHO-DSP1 cells with HIV-1 HXB2 Env and HeLa.CD4-DSP2 cells, fusion level at 1 μg/mL (Fig 1D; concentration dependent over 10-1000 ng/mL, Fig 3A) (% of untreated control) was determined as 18. Moreover, the Env-mediated cell-cell fusion (SRFA), fusion level at 260 nM (% of untreated control) in test [1] was 2. For the same substance, the IC50 of neutralisation of HIV-1 pseudovirus (TZM-bl assay) in test [2] was determined as 0.003 µg/mL; in test [3] it was 0.0008 µg/mL; in test [4], 0.258 µg/mL; in test [5] it was 0.468 µg/mL. The IC90 of neutralisation of HIV-1 pseudovirus (TZM-bl assay) turned out to be 0.009 µg/mL in test [2], 0.002 µg/mL in test [3], 0.83 µg/mL in test [4] and 1.65 µg/mL in test [5]. For the same substance, in test [6], the Env-mediated cell-cell fusion (SRFA), CHO-DSP1 cells with HIV-1 YU2 Env and HeLa.CD4-DSP2 cells with CCR5, fusion level at 260 nM (% of untreated control) turned out to be 30.
VRC03 (antibody): in test [7], the Env-mediated cell-cell fusion (SRFA), fusion level with 10 μg/mL antibody; the pair said to be blocked is CD4 (on HeLa.CD4-DSP2 cells) with gp120 was 53 % of control.
